As usually defined, the stoichiometry N is a count of units in the complex or per binding partner.

The values below come from publication doi:10.1101/2022.05.04.490607 (bioRxiv, 2022).

For experiment [1], the target named is HSP90 beta (full-length human, N-terminal HA tag) (human, UniProt P08238 1-724, phosphorylated (sites in Table S1)). Nature of the experiment: SEC-MALS. In general terms: SEC sorts molecules by how far they enter the pores of the column.
Experiment [2] deals with T1, recombinant 14-3-3ζ, P63104.
T1 chain: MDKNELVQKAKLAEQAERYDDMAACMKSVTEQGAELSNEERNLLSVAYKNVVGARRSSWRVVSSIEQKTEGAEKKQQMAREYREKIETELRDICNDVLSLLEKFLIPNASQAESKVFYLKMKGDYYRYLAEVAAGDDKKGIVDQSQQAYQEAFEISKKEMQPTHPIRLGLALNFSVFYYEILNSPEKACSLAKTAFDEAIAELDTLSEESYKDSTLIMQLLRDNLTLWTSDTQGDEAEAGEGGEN
The experiment in a line: cryo-EM structure. The note with it: remark: other sources report otherwise.

Chain of HSP90 beta (full-length human, N-terminal HA tag) (P08238 whole entry): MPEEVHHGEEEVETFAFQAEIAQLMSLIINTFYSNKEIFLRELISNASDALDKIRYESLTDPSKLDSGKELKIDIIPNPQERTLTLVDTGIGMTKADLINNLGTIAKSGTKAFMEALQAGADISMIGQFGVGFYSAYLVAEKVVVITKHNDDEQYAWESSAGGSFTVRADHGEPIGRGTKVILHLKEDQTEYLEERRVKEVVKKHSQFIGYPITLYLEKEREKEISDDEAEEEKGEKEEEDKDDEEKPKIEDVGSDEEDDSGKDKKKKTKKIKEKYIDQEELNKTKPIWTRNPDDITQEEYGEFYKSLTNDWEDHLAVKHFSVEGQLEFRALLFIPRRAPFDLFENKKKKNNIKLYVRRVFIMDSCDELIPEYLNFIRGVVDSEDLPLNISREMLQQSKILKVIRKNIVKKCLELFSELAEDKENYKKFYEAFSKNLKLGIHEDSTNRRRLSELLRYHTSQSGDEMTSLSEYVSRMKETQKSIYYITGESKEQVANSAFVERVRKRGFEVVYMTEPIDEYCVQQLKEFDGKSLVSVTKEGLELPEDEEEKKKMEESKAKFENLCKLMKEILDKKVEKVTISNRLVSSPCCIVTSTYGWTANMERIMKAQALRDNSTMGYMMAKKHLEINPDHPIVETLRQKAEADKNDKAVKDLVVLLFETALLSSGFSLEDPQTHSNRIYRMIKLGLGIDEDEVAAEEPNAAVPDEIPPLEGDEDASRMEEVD

B1: CDC37 (full-length human, C-terminal Myc-DDK tag) (natural protein)
chain: MVDYSVWDHIEVSDDEDETHPNIDTASLFRWRHQARVERMEQFQKEKEELDRGCRECKRKVAECQRKLKELEVAEGGKAELERLQAEAQQLRKEERSWEQKLEEMRKKEKSMPWNVDTLSKDGFSKSMVNTKPEKTEEDSEEVREQKHKTFVEKYEKQIKHFGMLRRWDDSQKYLSDNVHLVCEETANYLVIWCIDLEVEEKCALMEQVAHQTIVMQFILELAKSLKVDPRACFRQFFTKIKTADRQYMEGFNDELEAFKERVRGRAKLRIEKAMKEYEEEERKKRLGPGGLDPVEVYESLPEELQKCFDVKDVQMLQDAISKMDPTDAKYHMQRCIDSGLWVPNSKASEAKEGEEAGPGDPLLEAVPKTGDEKDVSV
modifications: phosphoserine at S13 (seen in the cryo-EM map; further sites in Table S1)
With B1, the binding result in experiment [1] is listed as “binds”.

B2: recombinant 14-3-3ζ, P63104 1-245 (natural protein)
chain: T1 chain
Take B2: the stoichiometry N in experiment [2] is 2.
